In the supplement of paper PMC5998384:

Legend:
HeLa Kyoto [1] = test: solubility in G1/S (NP-40 vs SDS abundance) (log2 ratio); higher = more soluble; conditions: cell cycle stage: G1/S
HeLa Kyoto [2] = test: solubility change mitosis vs G1/S (difference of NP-40 vs SDS log2 ratios) (log2 ratio difference); higher = more soluble in mitosis
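Wherever solubility change mitosis vs G1/S (difference of NP-40 vs SDS log2 ratios) is given: synchronized HeLa Kyoto cells (double thymidine block for G1/S, nocodazole release for mitosis), protein amounts in NP-40 versus SDS lysates quantified by mass spectrometry, three biological replicates.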
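Wherever solubility in G1/S (NP-40 vs SDS abundance) is given: HeLa Kyoto cells arrested at G1/S by double thymidine block, proteins quantified by TMT10plex mass spectrometry in mild NP-40 versus SDS extracts, three biological replicates.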

| Sequence | solubility in G1/S (log2) (HeLa Kyoto [1]) | solubility change mitosis (log2) (HeLa Kyoto [2]) |
| --- | --- | --- |
| MLWLALGPFPAMENQVLVIRIKIPNSGAVDWTVHSGPQLLFRDVLDVIGQVLPEATTTAFEYEDEDGDRITVRSDEEMKAMLSYYYSTVMEQQVNGQLIEPLQIFPRACKPPGERNIHGLKVNTRAGPSQHSSPAVSDSLPSNSLKKSSAELKKILANGQMNEQDIRYRDTLGHGNGGTVYKAYHVPSGKILAVKVILLDITLELQKQIMSELEILYKCDSSYIIGFYGAFFVENRISICTEFMDGGSLDVYRKMPEHVLGRIAVAVVKGLTYLWSLKILHRDVKPSNMLVNTRGQVKLCDFGVSTQLVNSIAKTYVGTNAYMAPERISGEQYGIHSDVWSLGISFMELALGRFPYPQIQKNQGSLMPLQLLQCIVDEDSPVLPVGEFSEPFVHFITQCMRKQPKERPAPEELMGHPFIVQFNDGNAAVVSMWVCRALEERRSQQGPP [MAP2K5] | 0.128 | -0.109 |
| MMKKKKFKFKVDFELEELSSVPFVNGVLFCKMRLLDGGSFTAESSREVVQANCVRWRKKFSFMCKMSASAATGILDPCIYRVSVRKELKGGKAYAKLGFADLNLAEFAGSGNTTRRCLLEGYDTKNTRQDNSILKVLISMQLMSGDPCFKTPPSTSMSIPIAGESESLQEDRKGGETLKVHLGIADLSAKSASVPDELGACGHSRTSSYASQQSKVSGYSTCHSRSSSFSELCHRRNTSVGSTSTGVESILEPCDEIEQKIAEPNLDTADKEDTASEKLSRCPVKQDSVESQLKRVDDTRVDADDIVEKILQSQDFSLDSSAEEEGLRLFVGPGGSTTFGSHHLPNRVGSGAYEQVVIKR [FAM102B] | -0.233 | 0.0662 |
| MMWRPSVLLLLLLLRHGAQGKPSPDAGPHGQGRVHQAAPLSDAPHDDAHGNFQYDHEAFLGREVAKEFDQLTPEESQARLGRIVDRMDRAGDGDGWVSLAELRAWIAHTQQRHIRDSVSAAWDTYDTDRDGRVGWEELRNATYGHYAPGEEFHDVEDAETYKKMLARDERRFRVADQDGDSMATREELTAFLHPEEFPHMRDIVIAETLEDLDRNKDGYVQVEEYIADLYSAEPGEEEPAWVQTERQQFRDFRDLNKDGHLDGSEVGHWVLPPAQDQPLVEANHLLHESDTDKDGRLSKAEILGNWNMFVGSQATNYGEDLTRHHDEL [RCN3] | 0.0765 | 0.262 |
| MNDISQKAEILLSSSKPVPKTYVPKLGKGDVKDKFEAMQRAREERNQRRSRDEKQRRKEQYIREREWNRRKQEIKEMLASDDEEDVSSKVEKAYVPKLTGTVKGRFAEMEKQRQEEQRKRTEEERKRRIEQDMLEKRKIQRELAKRAEQIEDINNTGTESASEEGDDSLLITVVPVKSYKTSGKMKKNFEDLEKEREEKERIKYEEDKRIRYEEQRPSLKEAKCLSLVMDDEIESEAKKESLSPGKLKLTFEELERQRQENRKKQAEEEARKRLEEEKRAFEEARRQMVNEDEENQDTAKIFKGYRPGKLKLSFEEMERQRREDEKRKAEEEARRRIEEEKKAFAEARRNMVVDDDSPEMYKTISQEFLTPGKLEINFEELLKQKMEEEKRRTEEERKHKLEMEKQEFEQLRQEMGEEEEENETFGLSREYEELIKLKRSGSIQAKNLKSKFEKIGQLSEKEIQKKIEEERARRRAIDLEIKEREAENFHEEDDVDVRPARKSEAPFTHKVNMKARFEQMAKAREEEEQRRIEEQKLLRMQFEQREIDAALQKKREEEEEEEGSIMNGSTAEDEEQTRSGAPWFKKPLKNTSVVDSEPVRFTVKVTGEPKPEITWWFEGEILQDGEDYQYIERGETYCLYLPETFPEDGGEYMCKAVNNKGSAASTCILTIESKN [NEXN] | -0.858 | 0.21 |
| MNFTPTHTPVCRKRTVVSKRGVAVSGPTKRRGMADSLESTPLPSPEDRLAKLHPSKELLEYYQKKMAECEAENEDLLKKLELYKEACEGQHKLECDLQQREEEIAELQKALSDMQVCLFQEREHVLRLYSENDRLRIRELEDKKKIQNLLALVGTDAGEVTYFCKEPPHKVTILQKTIQAVGECEQSESSAFKADPKISKRRPSRERKESSEHYQRDIQTLILQVEALQAQLGEQTKLSREQIEGLIEDRRIHLEEIQVQHQRNQNKIKELTKNLHHTQELLYESTKDFLQLRSENQNKEKSWMLEKDNLMSKIKQYRVQCKKKEDKIGKVLPVMHESHHAQSEYIKSLKDKLVQEKKLSNMYQEQCISLEEELARIREEEGMRREIFKDRTNKMGKRLQIMTKRYEALERRRILEVEGFKTDIKVLRQKLKDLEQMLYKATVNARANQDLALLCEVRDSNRRAHKIQGELKNLKSKVFGLENELRLC [CCDC77] | -0.0939 | 0.373 |
| MNGFTPDEMSRGGDAAAAVAAVVAAAAAAASAGNGTGAGTGAEVPGAGAVSAAGPPGAAGPGPGQLCCLREDGERCGRAAGNASFSKRIQKSISQKKVKIELDKSARHLYICDYHKNLIQSVRNRRKRKGSDDDGGDSPVQDIDTPEVDLYQLQVNTLRRYKRHFKLPTRPGLNKAQLVEIVGCHFRSIPVNEKDTLTYFIYSVKNDKNKSDLKVDSGVH [SAP30] | 0.247 | 0.267 |
| MNPQQQRMAAIGTDKELSDLLDFSAMFSPPVNSGKTRPTTLGSSQFSGSGIDERGGTTSWGTSGQPSPSYDSSRGFTDSPHYSDHLNDSRLGAHEGLSPTPFMNSNLMGKTSERGSFSLYSRDTGLPGCQSSLLRQDLGLGSPAQLSSSGKPGTAYYSFSATSSRRRPLHDSAALDPLQAKKVRKVPPGLPSSVYAPSPNSDDFNRESPSYPSPKPPTSMFASTFFMQDGTHNSSDLWSSSNGMSQPGFGGILGTSTSHMSQSSSYGNLHSHDRLSYPPHSVSPTDINTSLPPMSSFHRGSTSSSPYVAASHTPPINGSDSILGTRGNAAGSSQTGDALGKALASIYSPDHTSSSFPSNPSTPVGSPSPLTGTSQWPRPGGQAPSSPSYENSLHSLQSRMEDRLDRLDDAIHVLRNHAVGPSTSLPAGHSDIHSLLGPSHNAPIGSLNSNYGGSSLVASSRSASMVGTHREDSVSLNGNHSVLSSTVTTSSTDLNHKTQENYRGGLQSQSGTVVTTEIKTENKEKDENLHEPPSSDDMKSDDESSQKDIKVSSRGRTSSTNEDEDLNPEQKIEREKERRMANNARERLRVRDINEAFKELGRMCQLHLKSEKPQTKLLILHQAVAVILSLEQQVRERNLNPKAACLKRREEEKVSAVSAEPPTTLPGTHPGLSETTNPMGHM [TCF12] | 0.156 | -0.221 |
| MNRSRAIVQRGRVLPPPAPLDTTNLAGRRTLQGRAKMASVPVYCLCRLPYDVTRFMIECDMCQDWFHGSCVGVEEEKAADIDLYHCPNCEVLHGPSIMKKRRGSSKGHDTHKGKPVKTGSPTFVRELRSRTFDSSDEVILKPTGNQLTVEFLEENSFSVPILVLKKDGLGMTLPSPSFTVRDVEHYVGSDKEIDVIDVTRQADCKMKLGDFVKYYYSGKREKVLNVISLEFSDTRLSNLVETPKIVRKLSWVENLWPEECVFERPNVQKYCLMSVRDSYTDFHIDFGGTSVWYHVLKGEKIFYLIRPTNANLTLFECWSSSSNQNEMFFGDQVDKCYKCSVKQGQTLFIPTGWIHAVLTPVDCLAFGGNFLHSLNIEMQLKAYEIEKRLSTADLFRFPNFETICWYVGKHILDIFRGLRENRRHPASYLVHGGKALNLAFRAWTRKEALPDHEDEIPETVRTVQLIKDLAREIRLVEDIFQQNVGKTSNIFGLQRIFPAGSIPLTRPAHSTSVSMSRLSLPSKNGSKKKGLKPKELFKKAERKGKESSALGPAGQLSYNLMDTYSHQALKTGSFQKAKFNITGACLNDSDDDSPDLDLDGNESPLALLMSNGSTKRVKSLSKSRRTKIAKKVDKARLMAEQVMEDEFDLDSDDELQIDERLGKEKATLIIRPKFPRKLPRAKPCSDPNRVREPGEVEFDIEEDYTTDEDMVEGVEGKLGNGSGAGGILDLLKASRQVGGPDYAALTEAPASPSTQEAIQGMLCMANLQSSSSSPATSSLQAWWTGGQDRSSGSSSSGLGTVSNSPASQRTPGKRPIKRPAYWRTESEEEEENASLDEQDSLGACFKDAEYIYPSLESDDDDPALKSRPKKKKNSDDAPWSPKARVTPTLPKQDRPVREGTRVASIETGLAAAAAKLAQQELQKAQKKKYIKKKPLLKEVEQPRPQDSNLSLTVPAPTVAATPQLVTSSSPLPPPEPKQEALSGSLADHEYTARPNAFGMAQANRSTTPMAPGVFLTQRRPSVGSQSNQAGQGKRPKKGLATAKQRLGRILKIHRNGKLLL [PHF8] | -0.765 | 0.336 |
| MNSDQDVALKLAQERAEIVAKYDRGREGAEIEPWEDADYLVYKVTDRFGFLHEEELPDHNVAVERQKHLEIERTTKWLKMLKGWEKYKNTEKFHRRIYKGIPLQLRGEVWALLLEIPKMKEETRDLYSKLKHRARGCSPDIRQIDLDVNRTFRDHIMFRDRYGVKQQSLFHVLAAYSIYNTEVGYCQGMSQITALLLMYMNEEDAFWALVKLFSGPKHAMHGFFVQGFPKLLRFQEHHEKILNKFLSKLKQHLDSQEIYTSFYTMKWFFQCFLDRTPFTLNLRIWDIYIFEGERVLTAMSYTILKLHKKHLMKLSMEELVEFFQETLAKDFFFEDDFVIEQLQISMTELKRAKLDLPEPGKEDEYPKKPLGQLPPELQSWGVHHLSNGQRSVGRPSPLASGRRESGAPHRRHEHSPHPQSRTGTPERAQPPRRKSVEEESKKLKDEADFQRKLPSGPQDSSRQYNHAAANQNSNATSNIRKEFVPKWNKPSDVSATERTAKYTMEGKGRAAHPALAVTVPGPAEVRVSNVRPKMKALDAEDGKRGSTASQYDNVPGPELDSGASVEEALERAYSQSPRHALYPPSPRKHAEPSSSPSKVSNKFTFKVQPPSHARYPSQLDGEARGLAHPPSYSNPPVYHGNSPKHFPTANSSFASPQFSPGTQLNPSRRPHGSTLSVSASPEKSYSRPSPLVLPSSRIEVLPVDTGAGGYSGNSGSPKNGKLIIPPVDYLPDNRTWSEVSYTYRPETQGQSWTRDASRGNLPKYSAFQLAPFQDHGLPAVSVDSPVRYKASPAAEDASPSGYPYSGPPPPAYHYRNRDGLSIQESVLL [USP6NL] | -0.388 | -0.321 |
| MNSGRPETMENLPALYTIFQGEVAMVTDYGAFIKIPGCRKQGLVHRTHMSSCRVDKPSEIVDVGDKVWVKLIGREMKNDRIKVSLSMKVVNQGTGKDLDPNNVIIEQEERRRRSFQDYTGQKITLEAVLNTTCKKCGCKGHFAKDCFMQPGGTKYSLIPDEEEEKEEAKSAEFEKPDPTRNPSRKRKKEKKKKKHRDRKSSDSDSSDSESDTGKRARHTSKDSKAAKKKKKKKKHKKKHKE [ZCCHC17] | -1.32 | 0.661 |
